{"source": "patent US20240366756A1", "about": "“COMBINATIONS AND USES THEREOF” (Incyte Corporation, priority 2011, published 2024)", "molecules": {"B1": {"name": "RefmAb33: antibody specific for RSV, used as isotype control, shares the same Fc region as MOR00208 (SEQ ID NO: 8, 9) (antibody)", "heavy": "QVTLRESGPALVKPTQTLTLTCTFSGFSLSTAGMSVGWIRQPPGKALEWLADIWWDDKKHYNPSLKDRLTISKDTSKNQVVLKVTNMDPADTATYYCARDMIFNFYFDVWGQGTTVTVSSASTKGPSVFPLAPSSKSTSGGTAALGCLVKDYFPEPVTVSWNSGALTSGVHTFPAVLQSSGLYSLSSVVTVPSSSLGTQTYICNVNHKPSNTKVDKKVEPKSCDKTHTCPPCPAPELLGGPDVFLFPPKPKDTLMISRTPEVTCVVVDVSHEDPEVQFNWYVDGVEVHNAKTKPREEQFNSTFRVVSVLTVVHQDWLNGKEYKCKVSNKALPAPEEKTISKTKGQPREPQVYTLPPSREEMTKNQVSLTCLVKGFYPSDIAVEWESNGQPENNYKTTPPMLDSDGSFFLYSKLTVDKSRWQQGNVFSCSVMHEALHNHYTQKSLSLSPGK", "light": "DIQMTQSPSTLSASVGDRVTITCSASSRVGYMHWYQQKPGKAPKLLIYDTSKLASGVPSRFSGSGSGTEFTLTISSLQPDDFATYYCFQGSGYPFTFGGGTKVEIKRTVAAPSVFIFPPSDEQLKSGTASVVCLLNNFYPREAKVQWKVDNALQSGNSQESVTEQDSKDSTYSLSSTLTLSKADYEKHKVYACEVTHQGLSSPVTKSFNRGEC", "modifications": "Heavy chain RefMab33; Light chain RefMab33"}}, "test_system": "RAMOS human Burkitt's lymphoma cells", "assay": "Human Non-Hodgkin RAMOS tumor in SCID mice, survival model", "format": "in vivo", "conditions": "for Median Survival (Days Post-Inoculation): 3 mg/kg i.v., treatment related deaths excluded; for Survival, pairwise comparison (Holm-Sidak) vs. Group 2: Group 2 = Bendamustine (13 mg/kg); for Survival, pairwise comparison (Holm-Sidak) vs. Group 3: Group 3 = Bendamustine (16 mg/kg); for Survival, pairwise comparison (Holm-Sidak) vs. Group 5: Group 5 = MOR00208/Bendamustine (3/13 mg/kg); for Survival, pairwise comparison (Holm-Sidak) vs. Group 6: Group 6 = MOR00208/Bendamustine (3/16 mg/kg); for Survival, pairwise comparison (Holm-Sidak) vs. Group 1: Group 1 = MOR00208 (3 mg/kg)", "description": "Cyclophosphamide (Baxter, Lot. No. 1A548C); Vehicle Control: 0.9% sodium chloride, 25 mg/ml mannitol, pH 6.5-6.8 (adjusted with 0.01 M NaOH); SCID Mice (University of Adelaide, Waite Campus, Urrbaraie, SA, Australia, Strain C.B.-17-Igh-1^b-Prkdc^scid); RAMOS human Burkitt's lymphoma cells (ATCC number CRL-1596); Ref_mAb_33_IgG_Xen (10 mg/mL in PBS, referred to as Ref_mAb_33); Bendamustine (Mundipharma, Lot No. 83889).\nSCID mice were pre-treated with Cyclophosphamide (75 mg/kg, i.p., twice daily) for two days prior to RAMOS cell inoculation (Day −2 and −1). On the day of inoculation (Day 0), the mice were separated into seven groups of ten mice each, and inoculated with 1×10^6 RAMOS cells each intravenously into the tail vein. The planned dosing regimen for each group is shown in Table 5 and commenced on Day 3. The study duration was 60 days.\nFrom the raw data shown in Table 6, both the median survival in days and median increase in lifespan were calculated. All treatment related deaths were excluded in the calculations.\nMedian % Increased Lifespan (ILS) is calculated as follows: […]\nThe classification of the MOR000208/Bendamustine combination therapy (combo) effect was evaluated by comparing the ILS of the combination with the added ILS of the respective monotherapies:\nSynergy/Potentiation*: ILSCombo>ILSMOR00208 3 mg/kg+ILSBendamustine. Synergistic effects are classified as potentiation if at least one of the monotherapies has no effect. Additivity: ILSCombo=ILSMOR00208 3 mg/kg+ILSBendamustine. Antagonism: ILSCombo<ILSMOR00208 3 mg/kg+ILSBendamustine.\nIn addition to an analysis of the data for purposes of identifying synergy, the following statistical analysis was also completed. Statistical analyses were carried out using the median values. Any animal that died unexpectedly or was culled prior to Day 17 of the study in the Test Article treatment groups was excluded from survival analysis calculation. The death/culling of these animals was attributed to compound toxicity rather than disease progression as they occurred well in advance of the first deaths in the Vehicle Control animals. A survival curve was created using the product limit of Kaplan and Meier, and survival curves compared using the log-rank (Mantel-Cox) test. Where significant differences were found, All Pairwise Multiple Comparison (Holm-Sidak Test) was performed. Comparison was done between all groups. In addition the comparison of the following groups were summarised in separate figures for each test article: Vehicle Control/Ref_mAb (group 10) against Bendamustine groups (Groups 2, 3 and 4) and Vehicle Control/Ref_mAb (group 10) against Combination groups (Groups 5 and 6) or respective MOR00208 monotherapy group (group 1). A p value of less than 0.05 was considered significant.", "key": {"[1]": {"conditions": "Table 8, listed as Bendamustine = 13 mg/kg"}, "[2]": {"conditions": "Table 9, listed as combination = 3/13 mg/kg"}, "[3]": {"conditions": "Table 10, listed as combination = 3/16 mg/kg"}, "[4]": {"conditions": "untitled repeat of Table 8, listed as Bendamustine = 13 mg/kg"}}, "note": "Marks after values point to notes of the source that are not given here.", "data": [{"molecule": "MOR00208: anti-CD19 antibody; variable domains shown in FIG. 3, heavy and light chain Fc regions in FIG. 4", "values": [{"measurement": "Median Survival (Days Post-Inoculation)", "result": "32^a Days Post-Inoculation"}, {"measurement": "Median % Increase in Lifespan (ILS)", "setting": "3 mg/kg, vs. vehicle control/Ref_mAb_33", "result": 25.5, "unit": "%"}, {"measurement": "Survival, pairwise comparison (Holm-Sidak) vs. Group 2", "setting": "Table 8", "result": "***Yes (***Yes: There is a statistically significant difference (p < 0.001).)"}, {"measurement": "Survival, pairwise comparison (Holm-Sidak) vs. Group 3", "setting": "[1]", "result": "***Yes (***Yes: There is a statistically significant difference (p < 0.001).)"}, {"measurement": "Survival, pairwise comparison (Holm-Sidak) vs. Group 2", "setting": "[2]", "result": "***Yes (***Yes: There is a statistically significant difference (p < 0.001).)"}, {"measurement": "Survival, pairwise comparison (Holm-Sidak) vs. Group 5", "setting": "Table 9", "result": "*Yes (*Yes: There is a statistically significant difference (p < 0.05).)"}, {"measurement": "Survival, pairwise comparison (Holm-Sidak) vs. Group 3", "setting": "[3]", "result": "***Yes (***Yes: There is a statistically significant difference (p < 0.001).)"}, {"measurement": "Survival, pairwise comparison (Holm-Sidak) vs. Group 6", "setting": "Table 10", "result": "***Yes (***Yes: There is a statistically significant difference (p < 0.001).)"}, {"measurement": "Survival, pairwise comparison (Holm-Sidak) vs. Group 2", "setting": "untitled repeat of Table 8", "result": "***Yes (***Yes: There is a statistically significant difference (p < 0.001).)"}, {"measurement": "Survival, pairwise comparison (Holm-Sidak) vs. Group 3", "setting": "[4]", "result": "***Yes (***Yes: There is a statistically significant difference (p < 0.001).)"}]}, {"molecule": "B1", "values": [{"measurement": "Median Survival (Days Post-Inoculation)", "result": 25.5, "unit": "Days Post-Inoculation"}, {"measurement": "Survival, pairwise comparison (Holm-Sidak) vs. Group 1", "setting": "Table 8", "result": "***Yes (***Yes: There is a statistically significant difference (p < 0.001).)"}, {"measurement": "Survival, pairwise comparison (Holm-Sidak) vs. Group 2", "setting": "Table 8", "result": "*Yes (*Yes: There is a statistically significant difference (p < 0.05).)"}, {"measurement": "Survival, pairwise comparison (Holm-Sidak) vs. Group 3", "setting": "[1]", "result": "No (No: There is no statistically significant difference (p ≥ 0.05).)"}, {"measurement": "Survival, pairwise comparison (Holm-Sidak) vs. Group 1", "setting": "Table 9", "result": "***Yes (***Yes: There is a statistically significant difference (p < 0.001).)"}, {"measurement": "Survival, pairwise comparison (Holm-Sidak) vs. Group 2", "setting": "[2]", "result": "*Yes (*Yes: There is a statistically significant difference (p < 0.05).)"}, {"measurement": "Survival, pairwise comparison (Holm-Sidak) vs. Group 5", "setting": "Table 9", "result": "***Yes (***Yes: There is a statistically significant difference (p < 0.001).)"}, {"measurement": "Survival, pairwise comparison (Holm-Sidak) vs. Group 1", "setting": "Table 10", "result": "***Yes (***Yes: There is a statistically significant difference (p < 0.001).)"}, {"measurement": "Survival, pairwise comparison (Holm-Sidak) vs. Group 3", "setting": "[3]", "result": "No (No: There is no statistically significant difference (p ≥ 0.05).)"}, {"measurement": "Survival, pairwise comparison (Holm-Sidak) vs. Group 6", "setting": "Table 10", "result": "***Yes (***Yes: There is a statistically significant difference (p < 0.001).)"}, {"measurement": "Survival, pairwise comparison (Holm-Sidak) vs. Group 1", "setting": "untitled repeat of Table 8", "result": "***Yes (***Yes: There is a statistically significant difference (p < 0.001).)"}, {"measurement": "Survival, pairwise comparison (Holm-Sidak) vs. Group 2", "setting": "untitled repeat of Table 8", "result": "*Yes (*Yes: There is a statistically significant difference (p < 0.05).)"}, {"measurement": "Survival, pairwise comparison (Holm-Sidak) vs. Group 3", "setting": "[4]", "result": "No (No: There is no statistically significant difference (p ≥ 0.05).)"}]}]}
